Data as given in article PMC2199005.

Legend:
[1] = biological target: recombinant streptococcal pyrogenic exotoxin C (SPE-C) (Streptococcus pyogenes); assay: SEC
[2] = biological target: recombinant streptococcal pyrogenic exotoxin C (SPE-C) (Streptococcus pyogenes); assay: nondenaturing SDS-PAGE

## recombinant streptococcal pyrogenic exotoxin C (SPE-C) (natural protein)
[1]
  percent dissociated to the monomer form: 50%
  stoichiometry N: 2
[2]
  percent of SPE-C in dimer form: > 60%
